According to patent EP0528271A1:

Each substance was assayed against human PTH receptor on mouse cranial bone-derived osteoblast-like cell strain MC3T3-EI (mouse cell strain (receptor given as 'human PTH receptor')) (UniProt P41593) (assay: cell-based or functional assay).
Sequence of UniProt P41593 (P41593 27-591): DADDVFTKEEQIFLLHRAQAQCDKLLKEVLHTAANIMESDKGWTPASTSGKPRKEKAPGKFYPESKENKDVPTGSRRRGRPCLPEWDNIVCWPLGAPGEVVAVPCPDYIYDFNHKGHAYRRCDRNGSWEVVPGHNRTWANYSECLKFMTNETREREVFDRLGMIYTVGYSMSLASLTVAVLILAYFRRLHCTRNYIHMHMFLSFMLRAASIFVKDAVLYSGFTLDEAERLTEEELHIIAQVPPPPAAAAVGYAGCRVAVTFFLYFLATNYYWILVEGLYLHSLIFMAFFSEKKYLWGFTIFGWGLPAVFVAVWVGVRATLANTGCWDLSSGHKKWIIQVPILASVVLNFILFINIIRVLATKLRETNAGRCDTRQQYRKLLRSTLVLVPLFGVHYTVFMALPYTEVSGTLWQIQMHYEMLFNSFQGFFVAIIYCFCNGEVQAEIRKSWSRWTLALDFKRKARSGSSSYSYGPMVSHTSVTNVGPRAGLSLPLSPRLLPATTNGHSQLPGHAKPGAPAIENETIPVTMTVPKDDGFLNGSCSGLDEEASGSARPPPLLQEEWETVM
In the case of Human PTH (1-84) (ligand), the Specific Activity (cAMP production in MC3T3-EI cells) (relative to natural type human PTH) is reported as 1. In the case of [Cys³⁵] human PTH (1-84) (ligand), the Specific Activity (cAMP production in MC3T3-EI cells) (relative to natural type human PTH) is reported as 0.6. Substance [Leu^8,18] human PTH (1-84) (ligand) has a Specific Activity (cAMP production in MC3T3-EI cells) (relative to natural type human PTH) of 0.3. [Leu⁸] human PTH (1-84) (ligand) was tested, and the Specific Activity (cAMP production in MC3T3-EI cells) (relative to natural type human PTH) was 1. “[Leu⁸] human PTH (second row with this label in the specific activity table; identity uncertain) (ligand)” gave a Specific Activity (cAMP production in MC3T3-EI cells) (relative to natural type human PTH) of 0.2.
